This is an account of results in article doi:10.1101/708180.

pKd: −log10 of the molar value.

Assay [1] concerns the target cHSP27, isolated α-crystallin domain of HSP27 (residues 84-171), oxidized disulfide-linked dimer (human) (UniProt P04792). Put plainly: NMR CPMG relaxation dispersion.
Assay [2] shares this target. Put plainly: NMR titration.
For assay [3] the target is unchanged. Put plainly: NMR titration + other: NMR CPMG relaxation dispersion.

Chain of C-terminal peptide of HSP27 containing the WT IxI/V (IPV) motif (P04792 whole entry, looked up, tested part not stated): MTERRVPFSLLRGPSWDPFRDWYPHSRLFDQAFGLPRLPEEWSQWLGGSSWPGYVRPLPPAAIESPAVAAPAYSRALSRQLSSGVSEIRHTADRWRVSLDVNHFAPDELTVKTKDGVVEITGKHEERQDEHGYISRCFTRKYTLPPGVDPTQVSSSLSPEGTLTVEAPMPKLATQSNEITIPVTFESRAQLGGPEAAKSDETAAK
Chain of C-terminal peptide of HSP27 bearing the P182L mutation (ILV motif) (P04792 whole entry P182L, looked up, tested part not stated): as the sequence (P04792 whole entry, looked up, tested part not stated) above, with P182L counted along it
Chain of cHSP27, isolated α-crystallin domain of HSP27 (residues 84-171), oxidized disulfide-linked dimer (human) (P04792 84-171): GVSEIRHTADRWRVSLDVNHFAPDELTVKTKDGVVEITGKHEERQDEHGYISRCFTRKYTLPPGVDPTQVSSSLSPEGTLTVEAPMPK

“C-terminal peptide of HSP27 bearing the P182L mutation (ILV motif) (from UniProt P04792 179-186)”: in assay [1], the pKd is 1.99, the koff came out at 840 s⁻¹ and the kon is 82600 M⁻¹ s⁻¹. This substance also gave a pKd in assay [2] of 2.92. Moreover, in assay [3], the fold difference of kon (from CSP Kd and CPMG koff) against the WT peptide was 10 fold.

As for “C-terminal peptide of HSP27 containing the WT IxI/V (IPV) motif (from UniProt P04792 179-186)”, in assay [1], the pKd is 2.60, the koff came to 759 s⁻¹ and the kon came to 302000 M⁻¹ s⁻¹. In assay [2], this substance showed a negative logarithm of the Kd (pKd) of 3.90.
